Laboratory results from paper PMC11620640.

Legend:
[1] = molecular target: SARS-CoV-2 Alpha variant spike RBD (UniProt P0DTC2); test: SPR
[2] = molecular target: raccoon dog ACE2 (rdACE2), peptidase domain (PD), wild type (raccoon dog) (UniProt B4XEP4); test: SPR; BIAcore […], 25°C, PBST (0.005% Tween-20 in PBS); […], single-cycle; 1:1 Langmuir model; […]
[3] = molecular target: raccoon dog ACE2 (rdACE2), peptidase domain (PD), wild type (raccoon dog) (UniProt B4XEP4); test: SPR

raccoon dog ACE2 (rdACE2), peptidase domain (PD), wild type (from UniProt B4XEP4) L24Q
Kd [1]: 42.9 nM

SARS-CoV-2 Omicron XBB spike RBD (from UniProt P0DTC2 319-541) (domain or fragment)
fold decrease of affinity against PT RBD [2]: 10 fold

raccoon dog ACE2 (rdACE2), peptidase domain (PD), wild type (from UniProt B4XEP4) E38D
Kd [1]: 12.4 nM

SARS-CoV-2 PT RBD K417N variant (from UniProt P0DTC2 319-541) (domain or fragment)
fold decrease of affinity against PT RBD [3]: > 6 fold

raccoon dog ACE2 (rdACE2), peptidase domain (PD), wild type (from UniProt B4XEP4) R353K
Kd [1]: 59.4 nM

SARS-CoV-2 Omicron BA.2 spike RBD (from UniProt P0DTC2 319-541) (domain or fragment)
fold decrease of affinity against PT RBD [3]: > 10 fold
